Reference: US20260327578A1, “TRANSGLUTAMINASES AND USES THEREOF” (CURIE CO. INC., priority 2023, published 2026)

Columns and labels:
N,N-dimethylcasein = experiment: Rate of product formation over 60 minutes (protein functionalization assay); format: biochemical; parameters: key: −: a reduction in activity; +: an improvement between 1.2 and 2-fold; ++: an improvement between 2 and 5-fold; +++: an improvement greater than 5-fold; conditions: improvement relative to wild-type Tgase (SEQ ID NO: 2); initial rate over 60 min
Protocol: Enzymatic “productivity” is a measure of product formation or substrate disappearance over time, at a prescribed temperature under specified reaction conditions. It is the measure both the durability and reaction yield of the enzyme variant. In this instance, productivity is defined as total product formed over 24-hours at a constant substrate concentration when the enzyme is the rate limiting factor. The time is defined as 24 hours, which represents approaching or surpassing burnout, denaturation, or self-reaction of the enzyme variant. In other words, variants with higher productivity deliver a higher product yield in 24-hours than variants with lower productivity produce in the same period of time. “Rate” refers to the initial rate for an enzymatic reaction, at a prescribed temperature under specified reaction conditions. The enzyme produces product at an initial rate that is approximately linear for a short period after the start of the reaction. When concentrations of enzyme and substrate are the same across the sample set, initial rates between enzyme variants can be compared. In this instance, the linear range for production of product occurs in one hour. Enzyme variants with faster initial rates deliver a higher product yield in one hour than variants with slower initial rates produce at the same time-period. In some cases, improvements to initial rates also deliver a more productive variant. In some cases, improvements to initial rates result in faster decay of the enzyme variant reducing overall enzymatic productivity. Productivity and rate may be assessed as described in Example 2.
Table 6 depicts variants of Streptomyces mobaraensis Tgase and improvement to productivity and/or rate relative to wild-type Tgase (SEQ ID NO. 2) as determined in Example 3. Numbering of amino acid positions is in reference to the mature S. mobaraensis Tgase sequence depicted in SEQ ID NO. 2. A “−” indicates a reduction in activity. A “+” indicates an improvement between 1.2 and 2-fold. A “++” indicates an improvement between 2 and 5-fold. A “+++” indicates an improvement greater than 5-fold.
Rate was assessed by measuring the rate of product formation over 60 minutes of incubation using a kinetic method to take scans every 60 seconds to determine product formation, using reaction conditions as described in Example 4B. The enzyme produces product at an initial rate that is approximately linear for the first one hour of the reaction. The concentrations of enzyme and substrate are the same across the sample set for each enzyme variant. Enzyme variants with faster initial rates deliver a higher product yield in one hour than variants with slower initial rates produce at the same time-period.
Protein functionalization by Tgase variants was determined by the fluorogenic labeling of casein using monodansylcadaverine (e.g., a commercially available kit such as the Transglutaminase Fluorogenic Activity Assay Kit, T036, Zedira, Germany). Tgase activity was monitored by measuring fluorescence (excitation wavelength 332 nm; emission wavelength 500 nm) using a BioTek Synergy H1 microplate reader. Transglutaminase-catalyzed covalent coupling (crosslinking) of monodansylcadaverine with N,N-dimethylcasein produces a product that causes a shift in intensity and wavelength of fluorescence of the dansyl group now linked to the casein. The relative transglutaminase activity is shown by increase of fluorescence intensity over time. Enzyme variant loading was optimized based on expression levels, ensuring enzyme was the rate limiting factor. Briefly, cell-free reactions (set up as described in Example 2A) were first diluted 10-fold using phosphate buffer, pH 7.4, and a 5 microliter aliquot was analyzed.

collagen = experiment: Collagen-modifying activity with FITC-gelatin or FITC-cadaverine; format: biochemical; conditions: 16 hours, pH 7.4
Protocol: Substrate specificity for collagen of Tgase variant A3 (SEQ ID NO: 4) was tested by allowing the variant to react with either fluorescein-labeled gelatin (FITC-Gelatin, to test protein-protein cross-linking) or fluorescein-labeled cadaverine (FITC-cadaverine, to test protein-small molecule cross-linking) with a collagen layer deposited on the bottom of a 96-well microtiter plate. Tgase variant A3 (SEQ ID NO: 4) and wild-type Tgase were diluted to 4-800 ppm in 50 mM phosphate buffer, pH 7.4, supplemented with 100 mM NaCl in 96-well collagen coated microtiter plates. Either FITC-gelatin or FITC-cadaverine was added to 1 g/L (final volume 100 μL) and the plates were sealed and incubated at either 37° C. or 50° C. for 16 hours. The reaction supernatants were carefully removed and then 200 μL 50 mM [COMPOUND LEFT OUT] mM NaCl, pH 7.4 buffer was added gently against the side of each well then carefully removed. This wash step was repeated. The plate-bound material was extracted by vigorously pipetting 100 μL dimethylsulfoxide into each well, then the extract was transferred into a black bottom 96-well plate. The fluorescence of the samples was measured at an excitation wavelength of 487 nm and an emission wavelength of 528 nm. The fluorescence signal is assumed to be proportionate to the concentration of fluorescent product extracted from the surface of the plate. For both FITC-gelatin and FITC-cadaverine, the fluorescence response per concentration enzyme was higher for wells treated with Tgase variant A3 (SEQ ID NO: 4) than for wells treated with wild-type Tgase (Table 11).

C. albicans = experiment: Preservative efficacy in body lotion against C. albicans; format: cell-based; conditions: 0.005% in combinations, phenoxyethanol 0.7% alone, 0.3% combined, caprylyl glycol 0.7% alone, 0.35% combined, sodium benzoate 0.5% + EDTA 0.5%, 2% 2:1 propanediol:hexanediol, 0.5% CHA solution
Protocol: A vessel was filled with deionized water, placed under an overhead stirrer set to moderate mixing, and heated to 75-80° C. Glycerin was added to 2% and mixed until dissolved, followed by xanthan gum to 0.2%. At 75-80° C., cetearyl glucoside and cetearyl alcohol were added to 4% and 3%. Once both had melted fully, milk thistle seed oil was added and the batch was homogenized with a Silverson homogenizer with the standard emulsion screen until the batch had turned milky white. The batch was removed from heat and returned to propellor mixing with decreased speed to allow the emulsion to set up. At 40° C., pH was adjusted to pH 5.5-6.0 using citric acid or sodium hydroxide and split into several portions and allowed to finish cooling. Once cooled to room temperature, one portion of the body lotion was left unpreserved and the remaining portions were preserved with one or more substances selected from aseptilase, phenoxyethanol, caprylyl glycol, sodium benzoate, and EDTA. All samples were inoculated with E. coli (10^6 CFU/mL) and C. albicans (10^5 CFU/mL) and plated after 2 and 7 days.

B1: A3: Tgase variant S2P Q50S Q74A K91H Q124L K151R K152R N282M G283A relative to SEQ ID NO: 2 (protein, UniProt P81453 77-407, looked up, variant S2P Q50S Q74A K91H Q124L K151R K152R N282M G283A)
Protein-glutamine …: DPDDRVTPPAEPLDRMPDPYRPSYGRAETVVNNYIRKWQQVYSHRDGRKSQMTEEQREWLSYGCVGVTWVNSGAYPTNRLAFASFDEDRFHNELKNGRPRSGETRAEFEGRVAKESFDEEKGFLRAREVASVMNRALENAHDESAYLDNLRRELANGNDALRNEDARSPFYSALRNTPSFKERNGGNHDPSRMKAVIYSKHFWSGQDRSSSADKRKYGDPDAFRPAPGTGLVDMSRDRNIPRSPTSPGEGFVNFDYGWFGAQTEADADKTVWTHGNHYHAPMASLGAMHVYESKFRNWSEGYSDFDRGAYVITFIPKSWNTAPDKVKQGWP
Rate (N,N-dimethylcasein): − | Fluorescence/[Enzyme] (collagen; FITC-Cadaverine, 37 °C): 20.3 RFU/ppm | Fluorescence/[Enzyme] (collagen; FITC-Cadaverine, 50 °C): 182.2 RFU/ppm | Fluorescence/[Enzyme] (collagen; FITC-Gelatin, 37 °C): 8.4 RFU/ppm | Fluorescence/[Enzyme] (collagen; FITC-Gelatin, 50 °C): 36.9 RFU/ppm | Preservative efficacy against C. albicans, log reduction (C. albicans; day 2, aseptilase 0.01% alone): −1.08 log reduction in CFU/mL | Preservative efficacy against C. albicans, log reduction (C. albicans; day 7, aseptilase 0.01% alone): −1.19 log reduction in CFU/mL
